Values quoted from earlier work, collected in publication PMC3089658.

Target: CD25 (Homo sapiens) (UniProt P01589)
UniProt P01589, sequence (P01589 22-240): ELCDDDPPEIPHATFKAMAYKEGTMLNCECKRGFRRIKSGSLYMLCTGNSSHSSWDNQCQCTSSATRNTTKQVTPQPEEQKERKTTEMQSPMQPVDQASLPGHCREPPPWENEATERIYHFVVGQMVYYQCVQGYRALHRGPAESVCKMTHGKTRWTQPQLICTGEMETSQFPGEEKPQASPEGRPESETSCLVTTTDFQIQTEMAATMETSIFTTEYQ

Kd: 10 nM
Substance: IL-2 (from UniProt P60568)
